Data on 4 molecules can be found in patent US20140087995A1 (published 2014).

Numbered stars: 1 amine (or outer) side, 2 acyl side, 3 side chain; on linkers, the order of the positions; unused ones are H or OH. Bridge positions count the residues as written; N and C are the ends. Side chains are listed from the residue outwards. Ends that are not written are not given here. * marks the point of attachment. C20 diacid = O=C(O)CCCCCCCCCCCCCCCCCCC(=O)*; γGlu = O=C(O)[C@H](CCC(=O)[*:2])N[*:1]

In general, IC50 refers to the concentration that inhibits the measured activity by half.

Test [1] addresses T1, rat calcitonin receptor (rat, UniProt P32214 25-516).
T1 construct: whole, on cells; Membranes prepared from transiently transfected BHK tk'ts 13 cells (Assay VIII); also called rCTR; rCT
T1 sequence (looked up): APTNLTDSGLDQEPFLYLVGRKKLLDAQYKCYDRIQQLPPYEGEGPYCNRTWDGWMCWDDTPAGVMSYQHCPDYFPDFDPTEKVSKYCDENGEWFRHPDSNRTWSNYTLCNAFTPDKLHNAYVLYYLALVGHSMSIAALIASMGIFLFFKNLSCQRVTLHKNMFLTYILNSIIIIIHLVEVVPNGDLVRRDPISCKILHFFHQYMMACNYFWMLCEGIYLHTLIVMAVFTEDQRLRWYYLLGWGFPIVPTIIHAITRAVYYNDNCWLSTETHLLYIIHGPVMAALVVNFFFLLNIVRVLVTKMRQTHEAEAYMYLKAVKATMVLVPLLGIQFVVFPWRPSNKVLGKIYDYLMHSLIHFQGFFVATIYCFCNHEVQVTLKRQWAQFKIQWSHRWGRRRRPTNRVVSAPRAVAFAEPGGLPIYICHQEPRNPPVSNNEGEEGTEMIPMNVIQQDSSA
The test is described as follows: ratio of binding IC50s: rat calcitonin receptor / rat amylin receptor (reference).

For test [2], the target named is T2, human calcitonin receptor (human, UniProt P30988 25-474).
T2 construct: whole, on cells; Membranes prepared from a stably transfected BHK cell line (Assay VII); also called hCTR; hCT
T2 sequence (looked up): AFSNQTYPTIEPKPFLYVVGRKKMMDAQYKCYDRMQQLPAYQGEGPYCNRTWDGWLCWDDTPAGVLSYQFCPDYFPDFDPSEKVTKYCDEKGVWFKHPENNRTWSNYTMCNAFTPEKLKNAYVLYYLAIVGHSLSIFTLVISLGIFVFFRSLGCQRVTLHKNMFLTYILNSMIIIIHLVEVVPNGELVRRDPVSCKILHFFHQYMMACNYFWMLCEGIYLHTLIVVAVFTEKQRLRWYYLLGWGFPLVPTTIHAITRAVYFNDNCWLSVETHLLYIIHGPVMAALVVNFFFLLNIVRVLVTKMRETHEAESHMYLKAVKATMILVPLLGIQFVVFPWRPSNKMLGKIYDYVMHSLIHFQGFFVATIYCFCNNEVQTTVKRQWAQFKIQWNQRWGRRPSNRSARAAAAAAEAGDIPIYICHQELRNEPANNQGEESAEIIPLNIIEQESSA
Description: ratio of binding IC50s: human calcitonin receptor / human amylin receptor (reference). The method in brief:
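Scintillation proximity competition binding on cell membranes at 35 ng/μL with SPA beads, in 50 mM Hepes pH 7.4, 1 mM CaCl2, 5 mM MgCl₂, 0.1% OA, 0.02% Tween20. Incubated 120 min at 25° C with shaking. IC₅₀ from one-site competition fit.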

In test [3] the target is T1, rat calcitonin receptor. Description: SPA competition vs 125I-calcitonin, membranes of BHK cells with rat calcitonin receptor (Assay VIII).
Test [4] deals with T3, rat amylin receptor (rat calcitonin receptor + rat RAMP 3) (rat, UniProt P32214 25-516; Q9JJ73 23-147).
T3 construct: whole, on cells; Membranes prepared from transiently transfected BHK tk'ts 13 cells (Assay VI); also called rAmylin-R; rAmylin
T3 sequence (looked up) 1: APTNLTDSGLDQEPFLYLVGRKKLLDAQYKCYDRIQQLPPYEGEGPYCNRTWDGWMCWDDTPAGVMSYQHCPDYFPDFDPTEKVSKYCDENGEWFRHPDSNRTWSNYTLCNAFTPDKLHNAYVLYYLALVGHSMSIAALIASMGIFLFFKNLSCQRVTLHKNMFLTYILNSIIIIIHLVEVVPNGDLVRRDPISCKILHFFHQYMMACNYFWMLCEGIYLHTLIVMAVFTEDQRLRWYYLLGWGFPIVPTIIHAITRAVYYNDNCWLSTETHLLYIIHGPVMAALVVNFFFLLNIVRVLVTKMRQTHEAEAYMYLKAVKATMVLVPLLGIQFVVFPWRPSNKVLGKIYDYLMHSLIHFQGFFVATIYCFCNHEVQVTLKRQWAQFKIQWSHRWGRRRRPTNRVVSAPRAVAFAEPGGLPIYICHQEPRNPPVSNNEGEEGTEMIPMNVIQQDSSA
T3 sequence (looked up) 2: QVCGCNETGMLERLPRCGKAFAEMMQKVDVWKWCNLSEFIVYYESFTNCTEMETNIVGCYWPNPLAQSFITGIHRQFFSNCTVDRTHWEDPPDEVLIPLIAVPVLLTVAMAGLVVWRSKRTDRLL
Description: SPA competition vs 125I-rat amylin, membranes of BHK cells with rat calcitonin receptor + rat RAMP3 (Assay VI).

B1: N^ε1-[(4S)-4-carboxy-4-(19-carboxynonadecanoylamino)butanoyl]-[His14,Arg17,Pro21,Pro27,Pro34]-h-amylin (peptide)
peptide: K([γGlu-C20 diacid])CNTATCATQRLAHFLRHSSPNFGAIPSSTNVGPNTY-NH2
modifications: disulfide 2-7; N-terminus assumed
SMILES: CC[C@H](C)[C@H](NC(=O)[C@H](C)NC(=O)CNC(=O)[C@H](Cc1ccccc1)NC(=O)[C@H](CC(N)=O)NC(=O)[C@@H]1CCCN1C(=O)[C@H](CO)NC(=O)[C@H](CO)NC(=O)[C@H](Cc1c[nH]cn1)NC(=O)[C@H](CCCNC(=N)N)NC(=O)[C@H](CC(C)C)NC(=O)[C@H](Cc1ccccc1)NC(=O)[C@H](Cc1c[nH]cn1)NC(=O)[C@H](C)NC(=O)[C@H](CC(C)C)NC(=O)[C@H](CCCNC(=N)N)NC(=O)[C@H](CCC(N)=O)NC(=O)[C@@H](NC(=O)[C@H](C)NC(=O)[C@@H]1CSSC[C@H](NC(=O)[C@@H](N)CCCCNC(=O)CC[C@H](NC(=O)CCCCCCCCCCCCCCCCCCC(=O)O)C(=O)O)C(=O)N[C@@H](CC(N)=O)C(=O)N[C@@H]([C@@H](C)O)C(=O)N[C@@H](C)C(=O)N[C@@H]([C@@H](C)O)C(=O)N1)[C@@H](C)O)C(=O)N1CCC[C@H]1C(=O)N[C@@H](CO)C(=O)N[C@@H](CO)C(=O)N[C@H](C(=O)N[C@@H](CC(N)=O)C(=O)N[C@H](C(=O)NCC(=O)N1CCC[C@H]1C(=O)N[C@@H](CC(N)=O)C(=O)N[C@H](C(=O)N[C@@H](Cc1ccc(O)cc1)C(N)=O)[C@@H](C)O)C(C)C)[C@@H](C)O
notes: Analogue of human amylin; also called compound 67
As to B1, in the test with rat calcitonin receptor [1], the “Ratio rCT/rAmylin binding” value turned out to be 85.4. Moreover, the “Ratio hCT/hAmylin binding” value in test [2] was determined as 51.6. Further, the IC50 in the test with rat calcitonin receptor [3] turned out to be 14.7 nM; in test [4], 0.172 nM.

B2: N^ε1-[(4S)-4-carboxy-4-[[(4S)-4-carboxy-4-(19-carboxynonadecanoylamino)butanoyl]amino]butanoyl]-[Glu14,Arg17,Pro21,Pro27,Arg35]-h-amylin (peptide)
peptide: K([γGlu-γGlu-C20 diacid])CNTATCATQRLAEFLRHSSPNFGAIPSSTNVGSRTY-NH2
modifications: disulfide 2-7; N-terminus assumed
SMILES: CC[C@H](C)[C@H](NC(=O)[C@H](C)NC(=O)CNC(=O)[C@H](Cc1ccccc1)NC(=O)[C@H](CC(N)=O)NC(=O)[C@@H]1CCCN1C(=O)[C@H](CO)NC(=O)[C@H](CO)NC(=O)[C@H](Cc1c[nH]cn1)NC(=O)[C@H](CCCNC(=N)N)NC(=O)[C@H](CC(C)C)NC(=O)[C@H](Cc1ccccc1)NC(=O)[C@H](CCC(=O)O)NC(=O)[C@H](C)NC(=O)[C@H](CC(C)C)NC(=O)[C@H](CCCNC(=N)N)NC(=O)[C@H](CCC(N)=O)NC(=O)[C@@H](NC(=O)[C@H](C)NC(=O)[C@@H]1CSSC[C@H](NC(=O)[C@@H](N)CCCCNC(=O)CC[C@H](NC(=O)CC[C@H](NC(=O)CCCCCCCCCCCCCCCCCCC(=O)O)C(=O)O)C(=O)O)C(=O)N[C@@H](CC(N)=O)C(=O)N[C@@H]([C@@H](C)O)C(=O)N[C@@H](C)C(=O)N[C@@H]([C@@H](C)O)C(=O)N1)[C@@H](C)O)C(=O)N1CCC[C@H]1C(=O)N[C@@H](CO)C(=O)N[C@@H](CO)C(=O)N[C@H](C(=O)N[C@@H](CC(N)=O)C(=O)N[C@H](C(=O)NCC(=O)N[C@@H](CO)C(=O)N[C@@H](CCCNC(=N)N)C(=O)N[C@H](C(=O)N[C@@H](Cc1ccc(O)cc1)C(N)=O)[C@@H](C)O)C(C)C)[C@@H](C)O
notes: Analogue of human amylin; also called compound 89
Turning to B2, in the test with rat calcitonin receptor [1], the “Ratio rCT/rAmylin binding” value came out at 48.8. In addition, the “Ratio hCT/hAmylin binding” value in test [2] was 28. The values for the IC50 (in the test with rat calcitonin receptor [3]; in test [4]) were 115 nM and 2.37 nM, respectively.

B3: N^ε1-[(4S)-4-carboxy-4-[[(4S)-4-carboxy-4-(19-carboxynonadecanoylamino)butanoyl]amino]butanoyl]-[Glu14,Arg17,Pro21,Pro27,Arg34]-h-amylin (peptide)
peptide: K([γGlu-γGlu-C20 diacid])CNTATCATQRLAEFLRHSSPNFGAIPSSTNVGRNTY-NH2
modifications: disulfide 2-7; N-terminus assumed
SMILES: CC[C@H](C)[C@H](NC(=O)[C@H](C)NC(=O)CNC(=O)[C@H](Cc1ccccc1)NC(=O)[C@H](CC(N)=O)NC(=O)[C@@H]1CCCN1C(=O)[C@H](CO)NC(=O)[C@H](CO)NC(=O)[C@H](Cc1c[nH]cn1)NC(=O)[C@H](CCCNC(=N)N)NC(=O)[C@H](CC(C)C)NC(=O)[C@H](Cc1ccccc1)NC(=O)[C@H](CCC(=O)O)NC(=O)[C@H](C)NC(=O)[C@H](CC(C)C)NC(=O)[C@H](CCCNC(=N)N)NC(=O)[C@H](CCC(N)=O)NC(=O)[C@@H](NC(=O)[C@H](C)NC(=O)[C@@H]1CSSC[C@H](NC(=O)[C@@H](N)CCCCNC(=O)CC[C@H](NC(=O)CC[C@H](NC(=O)CCCCCCCCCCCCCCCCCCC(=O)O)C(=O)O)C(=O)O)C(=O)N[C@@H](CC(N)=O)C(=O)N[C@@H]([C@@H](C)O)C(=O)N[C@@H](C)C(=O)N[C@@H]([C@@H](C)O)C(=O)N1)[C@@H](C)O)C(=O)N1CCC[C@H]1C(=O)N[C@@H](CO)C(=O)N[C@@H](CO)C(=O)N[C@H](C(=O)N[C@@H](CC(N)=O)C(=O)N[C@H](C(=O)NCC(=O)N[C@@H](CCCNC(=N)N)C(=O)N[C@@H](CC(N)=O)C(=O)N[C@H](C(=O)N[C@@H](Cc1ccc(O)cc1)C(N)=O)[C@@H](C)O)C(C)C)[C@@H](C)O
notes: Analogue of human amylin; also called compound 88
Take B3: the “Ratio rCT/rAmylin binding” value in the test with rat calcitonin receptor [1] is 84.9. The “Ratio hCT/hAmylin binding” value in test [2] came out at 46.5. In addition, the results for the 50% inhibitory concentration (IC50) (with rat calcitonin receptor [3]; in test [4]) were 196 nM and 2.31 nM, respectively.

B4: N^ε1-[(4S)-4-carboxy-4-[[(4S)-4-carboxy-4-(19-carboxynonadecanoylamino)butanoyl]amino]butanoyl]-[Arg17,Pro21,Pro27,His34]-h-amylin (peptide)
peptide: K([γGlu-γGlu-C20 diacid])CNTATCATQRLANFLRHSSPNFGAIPSSTNVGHNTY-NH2
modifications: disulfide 2-7; N-terminus assumed
SMILES: CC[C@H](C)[C@H](NC(=O)[C@H](C)NC(=O)CNC(=O)[C@H](Cc1ccccc1)NC(=O)[C@H](CC(N)=O)NC(=O)[C@@H]1CCCN1C(=O)[C@H](CO)NC(=O)[C@H](CO)NC(=O)[C@H](Cc1c[nH]cn1)NC(=O)[C@H](CCCNC(=N)N)NC(=O)[C@H](CC(C)C)NC(=O)[C@H](Cc1ccccc1)NC(=O)[C@H](CC(N)=O)NC(=O)[C@H](C)NC(=O)[C@H](CC(C)C)NC(=O)[C@H](CCCNC(=N)N)NC(=O)[C@H](CCC(N)=O)NC(=O)[C@@H](NC(=O)[C@H](C)NC(=O)[C@@H]1CSSC[C@H](NC(=O)[C@@H](N)CCCCNC(=O)CC[C@H](NC(=O)CC[C@H](NC(=O)CCCCCCCCCCCCCCCCCCC(=O)O)C(=O)O)C(=O)O)C(=O)N[C@@H](CC(N)=O)C(=O)N[C@@H]([C@@H](C)O)C(=O)N[C@@H](C)C(=O)N[C@@H]([C@@H](C)O)C(=O)N1)[C@@H](C)O)C(=O)N1CCC[C@H]1C(=O)N[C@@H](CO)C(=O)N[C@@H](CO)C(=O)N[C@H](C(=O)N[C@@H](CC(N)=O)C(=O)N[C@H](C(=O)NCC(=O)N[C@@H](Cc1c[nH]cn1)C(=O)N[C@@H](CC(N)=O)C(=O)N[C@H](C(=O)N[C@@H](Cc1ccc(O)cc1)C(N)=O)[C@@H](C)O)C(C)C)[C@@H](C)O
notes: Analogue of human amylin; also called compound 86
In the case of B4, in the test with rat calcitonin receptor [1], the “Ratio rCT/rAmylin binding” value came to 126. The “Ratio hCT/hAmylin binding” value in test [2] is 159. The values for the IC50 (with rat calcitonin receptor [3]; in test [4]) were 352 nM and 2.8 nM, respectively.
